Values of other authors in patent US20230372299A1, “PREPARATION OF TEREVALEFIM AND FORMULATIONS THEREOF” (Angion Biomedica Corp., priority 2020, published 2023).

## HGF/SF: pleiotropic growth factor that stimulates cell growth, cell motility, morphogenesis and angiogenesis
  half-life: 3 to 5 min
